From the RNAGym collection of RNA variant scans (doi:10.7554/elife.80360)

B1: Hairpin Ribozyme (parent)
chain: GUCCUCUUUCACGUGCGCGUGAAAGAGAGAAGUGAACCAGAGAAACACACGUUGUGGUAUAUUACCUGGUA

Variants of: B1
Assay: self-cleavage, relative activity (ratio to wild type); higher = more cleavage; co-transcriptional

Row | Variant | self-cleavage
1 | GUCCUCUUUCACGUGCGCGUGAAAGAGAGAAGUGAAGCAGAGAAACACACGUUGUGGUAUAUUACGUGGUA [C37G C66G] | 0.154
2 | GUCCUCUUUCCCGUGCGCGUGAAAGAGAGAAGUGAACCAGAGAAACGCACGUUGUGGUAUAUUACCUGGUA [A11C A47G] | 0.0993
3 | GUCCUCUUUCACGUUCGCGUGAAAGAGAGAAGUGAACCAGAGAAACACACGUUGUGGUAAAUUACCUGGUA [G15U U60A] | 0.932
4 | GUCCUCUUUCACGUGCGCGUGAAAGAGAGAAGUGAAGCAGAGAAACACACGUUGUCGUAUAUUACCUGGUA [C37G G56C] | 0.176
5 | GUCCUCUUUCACGUGCGCGUGAAAGAGCGAAGUGAACCAAAGAAACACACGUUGUGGUAUAUUACCUGGUA [A28C G40A] | 0.131
6 | GUCCUCUUUCACGUGCGCGUGAAAGAGAGAAGUGAACCAGAGAAACACACGUAGUGAUAUAUUACCUGGUA [U53A G57A] | 0.14
7 | GGCCUCUUUCACGUGCGCGUGAAAGAGAGAAGUGAACCAGAGAAACACACGUUUUGGUAUAUUACCUGGUA [U2G G54U] | 0.128
8 | GUCCUCUUUCACGUGCGCGUGAAAGAUAGAAGUGAACCAGAGAAACACACGUUGUGAUAUAUUACCUGGUA [G27U G57A] | 0.209
9 | GUCCUCUUUCACCUGCGCGUGAAAGAGAGAAGUAAACCAGAGAAACACACGUUGUGGUAUAUUACCUGGUA [G13C G34A] | 0.915
10 | GUCCUCUUUCACGUGCGCCUGAAAGAGAGAAGUGAACCAGAGAAACACACGUUGUGGUAUAUUACCGGGUA [G19C U67G] | 0.227
11 | GUCCUCUUUCACGUGCGCGUGAAAGAGAGAAGUGAACUAGAGAAACACACGUUGCGGUAUAUUACCUGGUA [C38U U55C] | 0.231
12 | GUCCUCUUUCACGUGCGCGUGAAAGAGAGAAGUGAACCACAGAAACACACGUUGUGGUAUAUUACCUAGUA [G40C G68A] | 0.132
13 | GUCCUCUUUCACGUGCGCGUGUAAGAGAGAAGUGAAUCAGAGAAACACACGUUGUGGUAUAUUACCUGGUA [A22U C37U] | 0.443
14 | GUCCGCAUUCACGUGCGCGUGAAAGAGAGAAGUGAACCAGAGAAACACACGUUGUGGUAUAUUACCUGGUA [U5G U7A] | 0.2
15 | GUCCUCUGUCACGUGCGCGUGAAAGAGAGAAGUAAACCAGAGAAACACACGUUGUGGUAUAUUACCUGGUA [U8G G34A] | 0.767
16 | GUCCUCUUUCACUUGCGCGUGAAAGAGAGAAGUGAACCAGAGAAACACACGUUGUGGUAUAUUUCCUGGUA [G13U A64U] | 0.147
17 | GUCCUCUUUCACGUGCGCGUGACAGAGAGAAGUGAACCAGAGUAACACACGUUGUGGUAUAUUACCUGGUA [A23C A43U] | 0.115
18 | GUCCGCUUUCACGUGCGCGUGAAAGAGAGAAGGGAACCAGAGAAACACACGUUGUGGUAUAUUACCUGGUA [U5G U33G] | 0.0612
19 | GUCCUCUUUCACGUGCGCGUGAAAGAGAGUAGUGAACCAGAGACACACACGUUGUGGUAUAUUACCUGGUA [A30U A44C] | 0.0664

Row | Variant | self-cleavage
20 | GUCGCCUUUCACGUGCGCGUGAAAGAGAGAAGUGAACCAGAGAAACACACGUUGUGGUAUAUUACCUGGUA [C4G U5C] | 0.112
21 | GUCCUCUUUCACGUGCGCGUGAAAAAGAGAAGUGAACCAGAGAAACACACGUUGUGGUAUAUUACCGGGUA [G25A U67G] | 0.176
22 | GCCCUCUUUCACGUGCGCGUGAAAGCGAGAAGUGAACCAGAGAAACACACGUUGUGGUAUAUUACCUGGUA [U2C A26C] | 0.0664
23 | GUCCUCUUUCACGUGCGCGUGAAAGAGAGAAGUUAACCAGAGAAACGCACGUUGUGGUAUAUUACCUGGUA [G34U A47G] | 0.444
24 | GUCCUCUUUCACCUGCGCGUGAAAGAGAGAAGUGAACCAGAGAAACACACGUUGUGGUAUUUUACCUGGUA [G13C A61U] | 0.161
25 | GUCCUCUUUCACGUGCGCGUGAAAGAGAGAAGUGAACCAGAGAAACAAACGUUGUGGUAUGUUACCUGGUA [C48A A61G] | 0.151
26 | GUCCUCGUUCACGUGCGCGUGAAAGAGAGAAGUGAACCAGAGAAACACACGUUGUGGCAUAUUACCUGGUA [U7G U58C] | 0.813
27 | GUCCUCGUUCACGUGCGCCUGAAAGAGAGAAGUGAACCAGAGAAACACACGUUGUGGUAUAUUACCUGGUA [U7G G19C] | 0.592
28 | GUCCUCUUUCACGUGCGCGUGAAAGAGAGAAGUGAACCAGAGAAACACACGUAGUGGUAUAUCACCUGGUA [U53A U63C] | 0.156
29 | AUCCUCUUUCACGUGCGCGUGAAAGAGAGAAGUGAACCAGAGAAACACACGUUAUGGUAUAUUACCUGGUA [G1A G54A] | 0.191
30 | GUGCUCUUUCCCGUGCGCGUGAAAGAGAGAAGUGAACCAGAGAAACACACGUUGUGGUAUAUUACCUGGUA [C3G A11C] | 0.137
31 | GUCCUCUUUCACGUGCGCGUGAAAGAGUGAAGUGAACCAGAGAGACACACGUUGUGGUAUAUUACCUGGUA [A28U A44G] | 0.25
32 | GUCCUCUUUCACGUGCGCGUGAAAGAGAGAAGUGAACCAGAGAAACACACGUUGUGGUAUACUACCAGGUA [U62C U67A] | 0.166
33 | GUCCUCUUGCACGUGCGCGUGAAAGAGAGAAGUGAACCAGAGAAACACACGUUGUGGAAUAUUACCUGGUA [U9G U58A] | 0.549
34 | GUCCUCUUUCACGUGCGCGUGAAUGAGAGAAGUGAACCAGAGAAACACACGUUGUGGUAUCUUACCUGGUA [A24U A61C] | 0.0949
35 | GUCCUCUUUCACGUGCGCGUGAACGAGAGAAGUGGACCAGAGAAACACACGUUGUGGUAUAUUACCUGGUA [A24C A35G] | 0.864
36 | GUCCACUUUCACGUGCGCGUGAAAGAGAGAAGUGAACCAGAGAAACACACGUUGUGGUAUAUUACCUGAUA [U5A G69A] | 0.0903
37 | GUCCUCUUUCACGUGCGCGUGAAAGAGAGAAGUGAACCAGGGAAACACACGUUGUGGUAUAUUACCUGAUA [A41G G69A] | 0.411
38 | GUCCUCUUUCACGUGCGCGUGAAAGAGAGAAGUGAACCAGAGAAAAACACGUUGUGGUAUAUUACCAGGUA [C46A U67A] | 0.122
